Test results published in article doi:10.1101/343368.

What was measured:
Assay in all cases: GO/AuNP colorimetric aptasensor
beta-lactoglobulin = biological target: T1, beta-lactoglobulin (milk (species ), UniProt P02754 17-178)
T1 sequence: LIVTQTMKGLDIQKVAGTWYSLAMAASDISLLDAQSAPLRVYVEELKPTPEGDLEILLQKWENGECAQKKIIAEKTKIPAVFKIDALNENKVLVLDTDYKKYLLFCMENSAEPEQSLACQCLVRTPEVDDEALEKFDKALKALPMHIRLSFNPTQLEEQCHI

arachin (Ara h 1) = biological target: T2, arachin (Ara h 1) (peanut, UniProt P43238 85-626)
T2 sequence: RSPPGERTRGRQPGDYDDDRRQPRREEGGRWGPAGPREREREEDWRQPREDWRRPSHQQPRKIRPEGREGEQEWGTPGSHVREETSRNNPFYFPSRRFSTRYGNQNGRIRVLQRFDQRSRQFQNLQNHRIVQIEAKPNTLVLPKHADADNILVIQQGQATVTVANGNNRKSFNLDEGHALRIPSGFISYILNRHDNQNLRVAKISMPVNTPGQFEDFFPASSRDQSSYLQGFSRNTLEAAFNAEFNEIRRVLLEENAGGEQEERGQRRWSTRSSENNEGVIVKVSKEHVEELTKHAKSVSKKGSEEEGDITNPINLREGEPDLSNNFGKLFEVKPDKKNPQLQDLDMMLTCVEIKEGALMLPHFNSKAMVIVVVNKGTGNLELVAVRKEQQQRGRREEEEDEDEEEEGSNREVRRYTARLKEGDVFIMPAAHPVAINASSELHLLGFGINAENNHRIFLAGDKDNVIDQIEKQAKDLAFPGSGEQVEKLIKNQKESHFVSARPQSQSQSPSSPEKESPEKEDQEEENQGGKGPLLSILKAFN

tropomyosin (Pen a 1) = tropomyosin (Pen a 1) (shrimp (species ), UniProt Q3Y8M6 1-284)
Chain of tropomyosin (Pen a 1) (Q3Y8M6 whole entry): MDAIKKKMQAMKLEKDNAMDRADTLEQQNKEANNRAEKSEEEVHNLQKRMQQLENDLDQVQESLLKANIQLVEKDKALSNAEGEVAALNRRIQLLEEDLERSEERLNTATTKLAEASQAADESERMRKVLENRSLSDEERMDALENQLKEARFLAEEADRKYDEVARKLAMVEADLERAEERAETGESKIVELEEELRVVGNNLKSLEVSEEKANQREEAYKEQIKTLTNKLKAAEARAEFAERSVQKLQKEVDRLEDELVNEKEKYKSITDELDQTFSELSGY

B1: beta-lactoglobulin (milk) aptamer (ssDNA)
DNA: ATACCAGCTTATTCAATTCGACGATCGGACCGCAGTACCCACCCACCAGCCCCAACATCATGCCCATCCGTGTGTGAGATAGTAAGTGCAATCT
modifications: biotin (position not given)
binding result (beta-lactoglobulin): binds

B2: arachin (peanut) aptamer (ssDNA)
DNA: TCGCACATTCCGCTTCTACCGGGGGGGTCGAGCGAGTGAGCGAATCTGTGGGTGGGCCGTAAGTCCGTGTGTGCGAA
modifications: biotin (position not given)
binding result (arachin (Ara h 1)): binds

B3: tropomyosin (shrimp) aptamer (ssDNA)
DNA: TACTAACGGTACAAGCTACCAGGCCGCCAACGTTGACCTAGAAGCACTGCCAGACCCGAACGTTGACCTAGAAGC
modifications: biotin (position not given)
binding result (tropomyosin (Pen a 1)): binds
